From article PMC12797046

B1: LATS1: 4A (protein)
parent chain: MKRSEKPEGYRQMRPKTFPASNYTVSSRQMLQEIRESLRNLSKPSDAAKAEHNMSKMSTEDPRQVRNPPKFGTHHKALQEIRNSLLPFANETNSSRSTSEVNPQMLQDLQAAGFDEDMVIQALQKTNNRSIEAAIEFISKMSYQDPRREQMAAAAARPINASMKPGNVQQSVNRKQSWKGSKESLVPQRHGPPLGESVAYHSESPNSQTDVGRPLSGSGISAFVQAHPSNGQRVNPPPPPQVRSVTPPPPPRGQTPPPRGTTPPPPSWEPNSQTKRYSGNMEYVISRISPVPPGAWQEGYPPPPLNTSPMNPPNQGQRGISSVPVGRQPIIMQSSSKFNFPSGRPGMQNGTGQTDFMIHQNVVPAGTVNRQPPPPYPLTAANGQSPSALQTGGSAAPSSYTNGSIPQSMMVPNRNSHNMELYNISVPGLQTNWPQSSSAPAQSSPSSGHEIPTWQPNIPVRSNSFNNPLGNRASHSANSQPSATTVTAITPAPIQQPVKSMRVLKPELQTALAPTHPSWIPQPIQTVQPSPFPEGTASNVTVMPPVAEAPNYQGPPPPYPKHLLHQNPSVPPYESISKPSKEDQPSLPKEDESEKSYENVDSGDKEKKQITTSPITVRKNKKDEERRESRIQSYSPQAFKFFMEQHVENVLKSHQQRLHRKKQLENEMMRVGLSQDAQDQMRKMLCQKESNYIRLKRAKMDKSMFVKIKTLGIGAFGEVCLARKVDTKALYATKTLRKKDVLLRNQVAHVKAERDILAEADNEWVVRLYYSFQDKDNLYFVMDYIPGGDMMSLLIRMGIFPESLARFYIAELTCAVESVHKMGFIHRDIKPDNILIDRDGHIKLTDFGLCTGFRWTHDSKYYQSGDHPRQDSMDFSNEWGDPSSCRCGDRLKPLERRAARQHQRCLAHSLVGTPNYIAPEVLLRTGYTQLCDWWSVGVILFEMLVGQPPFLAQTPLETQMKVINWQTSLHIPPQAKLSPEASDLIIKLCRGPEDRLGKNGADEIKAHPFFKTIDFSSDLRQQSASYIPKITHPTDTSNFDPVDPDKLWSDDNEEENVNDTLNGWYKNGKHPEHAFYEFTFRRFFDDNGYPYNYPKPIEYEYINSQGSEQQSDEDDQNTGSEIKNRDLVYV
B2: LATS1: LATS1-4A (protein)
parent chain: MKRSEKPEGYRQMRPKTFPASNYTVSSRQMLQEIRESLRNLSKPSDAAKAEHNMSKMSTEDPRQVRNPPKFGTHHKALQEIRNSLLPFANETNSSRSTSEVNPQMLQDLQAAGFDEDMVIQALQKTNNRSIEAAIEFISKMSYQDPRREQMAAAAARPINASMKPGNVQQSVNRKQSWKGSKESLVPQRHGPPLGESVAYHSESPNSQTDVGRPLSGSGISAFVQAHPSNGQRVNPPPPPQVRSVTPPPPPRGQTPPPRGTTPPPPSWEPNSQTKRYSGNMEYVISRISPVPPGAWQEGYPPPPLNTSPMNPPNQGQRGISSVPVGRQPIIMQSSSKFNFPSGRPGMQNGTGQTDFMIHQNVVPAGTVNRQPPPPYPLTAANGQSPSALQTGGSAAPSSYTNGSIPQSMMVPNRNSHNMELYNISVPGLQTNWPQSSSAPAQSSPSSGHEIPTWQPNIPVRSNSFNNPLGNRASHSANSQPSATTVTAITPAPIQQPVKSMRVLKPELQTALAPTHPSWIPQPIQTVQPSPFPEGTASNVTVMPPVAEAPNYQGPPPPYPKHLLHQNPSVPPYESISKPSKEDQPSLPKEDESEKSYENVDSGDKEKKQITTSPITVRKNKKDEERRESRIQSYSPQAFKFFMEQHVENVLKSHQQRLHRKKQLENEMMRVGLSQDAQDQMRKMLCQKESNYIRLKRAKMDKSMFVKIKTLGIGAFGEVCLARKVDTKALYATKTLRKKDVLLRNQVAHVKAERDILAEADNEWVVRLYYSFQDKDNLYFVMDYIPGGDMMSLLIRMGIFPESLARFYIAELTCAVESVHKMGFIHRDIKPDNILIDRDGHIKLTDFGLCTGFRWTHDSKYYQSGDHPRQDSMDFSNEWGDPSSCRCGDRLKPLERRAARQHQRCLAHSLVGTPNYIAPEVLLRTGYTQLCDWWSVGVILFEMLVGQPPFLAQTPLETQMKVINWQTSLHIPPQAKLSPEASDLIIKLCRGPEDRLGKNGADEIKAHPFFKTIDFSSDLRQQSASYIPKITHPTDTSNFDPVDPDKLWSDDNEEENVNDTLNGWYKNGKHPEHAFYEFTFRRFFDDNGYPYNYPKPIEYEYINSQGSEQQSDEDDQNTGSEIKNRDLVYV

How the values were obtained:
[1] = HA-Ub co-transfection, MG-132, anti-MYC IP, blot; settings: glycan lost; control: LATS1-WT
[2] = cycloheximide chase, degradation rate; settings: glycan lost; control: LATS1-WT
[3] = Nub-Gal4 overexpression, wing area, no-glucose medium; settings: glycan lost; control: Nub > LATS1, glucose-free medium
[4] = Nub-Gal4 overexpression, wing area; settings: glycan lost; control: Nub > LATS1, standard medium

Row | Protein | other: ubiquitination [1] | degradation_or_half_life [2] | other: Drosophila wing size [3] | other: Drosophila wing size [4]
1 | B1 | decreases | decreases | – | –
2 | B2 | – | – | no change | decreases
